This is an account of results in patent US20200115464A1 (Regeneron, published 2020).

Experiment [1] has as its target T1, human CD20 on cells (Raji, CD3-, CD20+ human B-cell line; B16F10.9/CD20 cells) (human, UniProt P11836 1-297).
T1 sequence (looked up): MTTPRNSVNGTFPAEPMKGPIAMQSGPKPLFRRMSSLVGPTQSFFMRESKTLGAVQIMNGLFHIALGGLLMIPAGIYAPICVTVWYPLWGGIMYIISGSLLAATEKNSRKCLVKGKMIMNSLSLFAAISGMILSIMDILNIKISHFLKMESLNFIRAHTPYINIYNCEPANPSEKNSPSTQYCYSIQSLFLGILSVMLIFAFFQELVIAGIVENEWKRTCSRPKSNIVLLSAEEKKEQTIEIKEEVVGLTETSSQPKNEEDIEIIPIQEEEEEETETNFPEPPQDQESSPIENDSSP
Nature of the experiment: cell-based or functional assay.

For experiment [2], the target named is T1, human CD20 on cells (Raji, CD3-, CD20+ …). Nature of the experiment: cell-based or functional assay. This is another data set of the same source.
Experiment [3] concerns the target T2, His-tagged human FcγRIIA (H131) (human, UniProt P12318 36-218, limits assumed).
T2 construct: also called hFcyRIIA (H131)
T2 sequence (looked up): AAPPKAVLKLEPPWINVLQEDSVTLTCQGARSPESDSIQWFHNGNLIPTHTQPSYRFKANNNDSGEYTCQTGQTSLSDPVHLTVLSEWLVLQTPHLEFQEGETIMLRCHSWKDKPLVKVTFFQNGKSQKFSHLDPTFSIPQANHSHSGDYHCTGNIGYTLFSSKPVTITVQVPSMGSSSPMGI
Nature of the experiment: SPR steady-state, His-captured FcγR, antibody injected, 25 C.

Experiment [4] deals with T3, His-tagged human FcγRIIA (R131) (human, UniProt P12318 36-218, limits assumed).
T3 construct: also called human FcyRIIA (R131)
T3 sequence (looked up): T2 sequence (looked up) with H132R
Described as above.

Experiment [5] deals with T4, His-tagged cynomolgus FcγRIIA (cynomolgus monkey, UniProt A0A140HDN0 30-216).
T4 construct: also called cyno FcyRIIA
T4 sequence: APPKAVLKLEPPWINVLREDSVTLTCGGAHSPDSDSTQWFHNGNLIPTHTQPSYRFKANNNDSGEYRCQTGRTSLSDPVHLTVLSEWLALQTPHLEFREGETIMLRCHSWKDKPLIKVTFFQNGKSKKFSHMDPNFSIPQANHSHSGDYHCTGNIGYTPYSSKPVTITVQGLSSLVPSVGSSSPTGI
The description is as above.

The target in the next experiment is T5, His-tagged human FcγRIIB (human, UniProt P31994 46-217, limits assumed).
T5 construct: also called human FcyRIIB
T5 sequence (looked up): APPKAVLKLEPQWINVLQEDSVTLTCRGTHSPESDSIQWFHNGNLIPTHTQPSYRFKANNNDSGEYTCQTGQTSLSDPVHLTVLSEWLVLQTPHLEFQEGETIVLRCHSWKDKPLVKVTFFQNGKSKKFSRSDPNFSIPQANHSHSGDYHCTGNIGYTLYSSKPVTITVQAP
Described as above.

Experiment [6] has as its target T6, His-tagged cynomolgus FcγRIIB (cynomolgus monkey, UniProt A0A140HDP4 46-217).
T6 construct: also called cyno FcyRIIB
T6 sequence: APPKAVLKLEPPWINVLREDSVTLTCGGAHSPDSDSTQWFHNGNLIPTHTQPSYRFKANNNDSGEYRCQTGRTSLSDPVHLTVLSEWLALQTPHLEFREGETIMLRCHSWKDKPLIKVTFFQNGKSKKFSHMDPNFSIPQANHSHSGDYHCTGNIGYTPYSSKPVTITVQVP
Described as above.

Experiment [7] concerns the target T7, His-tagged human FcγRIIIA (V176) (human, UniProt P08637 17-208).
T7 construct: also called human FcyRIIIA (V176)
The experiment is described as above.

In experiment [8] the target is T8, His-tagged human FcγRIIIA (F176) (human, UniProt P08637 17-208).
T8 construct: also called human FcyRIIIA (F176)
The experiment is described as above.

Experiment [9] addresses T9, His-tagged cynomolgus FcγRIIIA (cynomolgus monkey, UniProt Q8SPW2 17-208, limits assumed).
T9 construct: also called cyno FcyRIIIA
Described as above.

Experiment [10] has as its target T10, His-tagged human FcγRIIIB (human, UniProt O75015 17-200).
T10 construct: also called human FcyRIIIB
The experiment is described as above.

In the next experiment the target is T11, His-tagged human FcγRI (human, UniProt P12314 16-288).
T11 construct: also called human FcRγI; hFcγRI
Nature of the experiment: SPR (Biacore T200), His-captured human FcγRI, antibody injected, 25 C. The method, then:
Briefly, SPR experiments were performed at 25° C. on a Biacore T200 instrument employing a carboxymethyl dextran-coated (CM-5) chip. A mouse monoclonal anti-penta-histidine antibody (GE Healthcare) was immobilized on the surface of the CM-5 sensor chip using standard amine-coupling chemistry. […] Kinetic association (kₐ) and dissociation (kd) rate constants were determined by processing and fitting the data to a 1:1 binding model using Scrubber 2.0 curve fitting software. Binding dissociation equilibrium constants (KD) and dissociative half-lives (t_{1/2}) were calculated from the kinetic rate constants as: KD (M)=kd/kₐ; and t_{1/2}(min)=(ln 2/(60*kd).

Experiment [11] concerns the target T1, human CD20 on cells (Raji, CD3-, CD20+ …). Nature of the experiment: cell-based or functional assay. This is another data set of the same source.
Experiment [12] has the same target. Nature of the experiment: FACS, serially diluted antibody on Raji cells (CD3-, CD20+). As to the method: (§1) FACS data was acquired using the following protocol: Cells at 2×10⁵ per well were incubated with serially diluted antibodies for 30 min on ice. Post incubation, cells were washed and appropriate secondary (Jurkat, RAJI cells) or cocktail of secondary antibodies (for cyno PBMC) was added and incubated for an additional 30 minutes. After incubation, cells were washed, re-suspended in cold PBS containing 1% BSA and analyzed by flow cytometry on a BD FACS Canto II. Jurkat and Raji cells were gated by side and forward scatters, while cynomolgus T cells were also gated as a CD2+CD4+ population. The EC₅₀s for cell binding titration were determined using Prism software with values calculated using a 4-parameter non-linear regression analysis.
For orientation: In flow cytometry, cells or beads pass a laser one at a time.

Experiment [13] addresses T12, human CD3 on Jurkat cells (CD3+, CD20- human T-cell line) (human, UniProt P07766 23-207; P04234 22-171; P09693 23-182; P20963 22-164).
T12 construct: whole, on cells; SP34 is said to react with the epsilon chain
Briefly: FACS, serially diluted antibody on Jurkat cells (CD3+, CD20-). The method, then:
as §1

The target in experiment [14] is T13, cynomolgus CD3 on T cells of cynomolgus PBMCs (mkT cells) (cynomolgus monkey).
T13 construct: whole, on cells; also called cynomolgus T cells; monkey T-cells
Nature of the experiment: FACS, serially diluted antibody on cynomolgus PBMC T cells (mkT cells). As to the method: as §1

Substitutions are numbered along the chain they refer to.

T10 sequence (O75015 17-200 limits assumed): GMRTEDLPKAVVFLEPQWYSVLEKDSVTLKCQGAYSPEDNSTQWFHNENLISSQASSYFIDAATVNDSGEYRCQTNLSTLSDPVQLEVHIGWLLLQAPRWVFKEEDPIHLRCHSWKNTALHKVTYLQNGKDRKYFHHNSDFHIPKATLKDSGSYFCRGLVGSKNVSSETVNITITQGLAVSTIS
T8 sequence (P08637 17-208 limits assumed): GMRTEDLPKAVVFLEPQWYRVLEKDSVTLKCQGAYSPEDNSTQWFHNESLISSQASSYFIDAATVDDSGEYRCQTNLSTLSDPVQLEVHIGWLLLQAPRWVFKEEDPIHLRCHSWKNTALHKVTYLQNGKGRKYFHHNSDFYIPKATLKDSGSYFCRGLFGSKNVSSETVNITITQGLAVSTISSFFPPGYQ
T11 sequence (P12314 16-288 limits assumed): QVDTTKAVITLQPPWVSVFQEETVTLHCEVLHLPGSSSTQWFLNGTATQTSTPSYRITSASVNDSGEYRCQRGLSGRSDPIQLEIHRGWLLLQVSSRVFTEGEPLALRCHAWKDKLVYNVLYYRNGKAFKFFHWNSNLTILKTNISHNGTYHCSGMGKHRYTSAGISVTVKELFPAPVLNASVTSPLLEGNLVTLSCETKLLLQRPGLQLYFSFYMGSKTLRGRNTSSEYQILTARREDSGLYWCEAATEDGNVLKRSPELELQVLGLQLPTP
T7 sequence (P08637 17-208 F176V limits assumed): as the sequence (P08637 17-208 limits assumed) above, with F160V counted along it
T9 sequence (Q8SPW2 17-208 limits assumed): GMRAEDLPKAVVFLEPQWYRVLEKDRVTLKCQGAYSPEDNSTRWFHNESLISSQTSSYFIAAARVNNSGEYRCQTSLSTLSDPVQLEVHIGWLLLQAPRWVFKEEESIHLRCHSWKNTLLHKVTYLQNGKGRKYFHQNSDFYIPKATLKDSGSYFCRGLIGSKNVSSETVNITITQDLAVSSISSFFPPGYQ

B1: Antibody 1 (CD3×CD20-chimericFc bispecific antibody) (bispecific antibody, human IgG4 S228P)
heavy 1: EVQLVESGGGLVQPGRSLRLSCVASGFTFNDYAMHWVRQAPGKGLEWVSVISWNSDSIGYADSVKGRFTISRDNAKNSLYLQMHSLRAEDTALYYCAKDNHYGSGSYYYYQYGMDVWGQGTTVTVSSASTKGPSVFPLAPCSRSTSESTAALGCLVKDYFPEPVTVSWNSGALTSGVHTFPAVLQSSGLYSLSSVVTVPSSSLGTKTYTCNVDHKPSNTKVDKRVESKYGPPCPPCPAPPVAGPSVFLFPPKPKDTLMISRTPEVTCVVVDVSQEDPEVQFNWYVDGVEVHNAKTKPREEQFNSTYRVVSVLTVLHQDWLNGKEYKCKVSNKGLPSSIEKTISKAKGQPREPQVYTLPPSQEEMTKNQVSLTCLVKGFYPSDIAVEWESNGQPENNYKTTPPVLDSDGSFFLYSRLTVDKSRWQEGNVFSCSVMHEALHNHYTQKSLSLSLGK
heavy 2: EVQLVESGGGLVQPGRSLRLSCAASGFTFDDYTMHWVRQAPGKGLEWVSGISWNSGSIGYADSVKGRFTISRDNAKKSLYLQMNSLRAEDTALYYCAKDNSGYGHYYYGMDVWGQGTTVTVASASTKGPSVFPLAPCSRSTSESTAALGCLVKDYFPEPVTVSWNSGALTSGVHTFPAVLQSSGLYSLSSVVTVPSSSLGTKTYTCNVDHKPSNTKVDKRVESKYGPPCPPCPAPPVAGPSVFLFPPKPKDTLMISRTPEVTCVVVDVSQEDPEVQFNWYVDGVEVHNAKTKPREEQFNSTYRVVSVLTVLHQDWLNGKEYKCKVSNKGLPSSIEKTISKAKGQPREPQVYTLPPSQEEMTKNQVSLTCLVKGFYPSDIAVEWESNGQPENNYKTTPPVLDSDGSFFLYSRLTVDKSRWQEGNVFSCSVMHEALHNRFTQKSLSLSLGK
VL: EIVMTQSPATLSVSPGERATLSCRASQSVSSNLAWYQQKPGQAPRLLIYGASTRATGIPARFSGSGSGTEFTLTISSLQSEDFAVYYCQHYINWPLTFGGGTKVEIKR
notes: Only the light chain variable region is tied to this antibody; also called Ab 1; Ab1
For the molecule B1, the “Raji Cytotoxicity Activated Human T-cells [M] (EC50, calcein release)” value in experiment [1] is 2.5e-11 M. Moreover, the “Raji Cytotoxicity Activated Monkey T-cells [M] (EC50, calcein release)” value in experiment [1] is 9.1e-12 M. Also, the “% Survival B16F10.9/CD20 cells [M] (EC50, target-specific killing, FACS)” value in experiment [2] stood at 1.95e-11 M. In addition, the Kd in experiment [3] is 120 nM; in experiment [4] it was 193 nM; in experiment [5], 231 nM; with His-tagged human FcγRIIB, 1230 nM; in experiment [6] it was 139 nM; in [9], 663 nM. The binding result (in [7]; in [8]; in [10]; with His-tagged human FcγRI) was “no binding” in each case.

B2: Antibody 2 (CD3×CD20-chimericFc bispecific antibody) (bispecific antibody, human IgG1)
heavy 1: EVQLVESGGGLVQPGRSLRLSCVASGFTFNDYAMHWVRQAPGKGLEWVSVISWNSDSIGYADSVKGRFTISRDNAKNSLYLQMHSLRAEDTALYYCAKDNHYGSGSYYYYQYGMDVWGQGTTVTVSSASTKGPSVFPLAPSSKSTSGGTAALGCLVKDYFPEPVTVSWNSGALTSGVHTFPAVLQSSGLYSLSSVVTVPSSSLGTQTYICNVNHKPSNTKVDKKVEPKSCDKTHTCPPCPAPPVAGPSVFLFPPKPKDTLMISRTPEVTCVVVDVSQEDPEVQFNWYVDGVEVHNAKTKPREEQFNSTYRVVSVLTVLHQDWLNGKEYKCKVSNKGLPSSIEKTISKAKGQPREPQVYTLPPSRDELTKNQVSLTCLVKGFYPSDIAVEWESNGQPENNYKTTPPVLDSDGSFFLYSKLTVDKSRWQQGNVFSCSVMHEALHNHYTQKSLSLSPGK
heavy 2: EVQLVESGGGLVQPGRSLRLSCAASGFTFDDYTMHWVRQAPGKGLEWVSGISWNSGSIGYADSVKGRFTISRDNAKKSLYLQMNSLRAEDTALYYCAKDNSGYGHYYYGMDVWGQGTTVTVASASTKGPSVFPLAPSSKSTSGGTAALGCLVKDYFPEPVTVSWNSGALTSGVHTFPAVLQSSGLYSLSSVVTVPSSSLGTQTYICNVNHKPSNTKVDKKVEPKSCDKTHTCPPCPAPPVAGPSVFLFPPKPKDTLMISRTPEVTCVVVDVSQEDPEVQFNWYVDGVEVHNAKTKPREEQFNSTYRVVSVLTVLHQDWLNGKEYKCKVSNKGLPSSIEKTISKAKGQPREPQVYTLPPSRDELTKNQVSLTCLVKGFYPSDIAVEWESNGQPENNYKTTPPVLDSDGSFFLYSKLTVDKSRWQQGNVFSCSVMHEALHNRFTQKSLSLSPGK
VL: B1 VL
notes: also called Ab 2
Consider B2, for which the Kd in [3] worked out at 117 nM; in experiment [4], 205 nM; in experiment [5] it was 235 nM; with His-tagged human FcγRIIB it was 2330 nM; in [6], 146 nM; in [9], 424 nM. Moreover, the binding result (in experiment [7]; in experiment [8]; in experiment [10]; in the experiment with His-tagged human FcγRI) was “no binding” in each case.

B3: (Control) Antibody 4, CD3×CD20 antibody-wild-type Fc (wtFc) (bispecific antibody, human IgG1)
heavy 1: not shown
heavy 2: not shown
VL: B1 VL
notes: Same variable regions as Antibody 1 and Antibody 2, wild-type IgG1 CH; also called Control Ab 4; Control 4
On to B3, for which, in experiment [11], the “Raji Cytotoxicity Human T-cells [M] (EC50, calcein release)” value is 5.63e-11 M and the “Raji Cytotoxicity Monkey T-cells [M] (EC50, calcein release)” value was 1.27e-12 M. For the same molecule, in experiment [1], the “Raji Cytotoxicity Activated Human T-cells [M] (EC50, calcein release)” value was 1.57e-11 M and the “Raji Cytotoxicity Activated Monkey T-cells [M] (EC50, calcein release)” value is 1.73e-12 M. Besides, in experiment [2], the “% Survival B16F10.9/CD20 cells [M] (EC50, target-specific killing, FACS)” value was determined as 1.28e-11 M. In experiment [12], this molecule showed a concentration for a half-maximal effect (EC50) of 59.9 nM. Also, a half-maximal effect in [13] (EC50) was put at 38.5 nM. In experiment [14], this molecule displayed an EC50 of 8740 nM.

What is called Kd is the concentration at which binding is half-saturated. The term EC50 denotes the concentration giving half of the maximal effect.
